Data as given in patent publication US20250043302A1, “MUTATED HYDROXYPHENYLPYRUVATE DIOXYGENASE POLYPEPTIDE, AND CODING GENE AND USE THEREOF” (BEIJING DABEINONG BIOTECHNOLOGY CO., LTD., priority 2021, published 2025).
Residue numbers refer to the chain shown, from its start. Names and notes keep the numbering of the source.

Legend:
Assay type in all cases: in vivo
[1] = system: Arabidopsis thaliana T1 plants; experiment: Topramezone tolerance of transgenic Arabidopsis thaliana T1 plants (spray, bleached leaf area grade, damage score); conditions: for Classification and statistics of the grade of pesticide damage: Grade 0 / Classification and statistics of the grade of pesticide damage: Grade 1 / Classification and statistics of the grade of pesticide damage: Grade 2 / Classification and statistics of the grade of pesticide damage: Grade 3: number of plants; for Classification and statistics of the grade of pesticide damage Grade 0: number of plants at grade 0; for Classification and statistics of the grade of pesticide damage Grade 1: number of plants at grade 1; for Classification and statistics of the grade of pesticide damage Grade 2: number of plants at grade 2; for Classification and statistics of the grade of pesticide damage Grade 3: number of plants at grade 3
In short: (§1)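 Read-out: per-plant damage grade 0–3 from proportion of bleached leaf area at 7 DAT (1 <50%, 2 >50%, 3 100%). Plants were T1 transformants, glufosinate-selected, plus wild-type CK, sprayed 18 days post-sowing. Rates: topramezone 25–200, isoxaflutole 35–280, mesotrione 52.5–420 g ai/ha.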

[2] = system: Arabidopsis thaliana T1 plants; experiment: Isoxaflutole tolerance of transgenic Arabidopsis thaliana T1 plants (spray, bleached leaf area grade, damage score); parameters: Scores (pesticide damage): scale not given here; conditions: for Classification and statistics of the grade of pesticide damage: Grade 0 (number of plants) / Classification and statistics of the grade of pesticide damage: Grade 1 (number of plants) / Classification and statistics of the grade of pesticide damage: Grade 2 (number of plants) / Classification and statistics of the grade of pesticide damage: Grade 3 (number of plants): 16 plants; for Classification and statistics of the grade of pesticide damage Grade 0 / Classification and statistics of the grade of pesticide damage Grade 1 / Classification and statistics of the grade of pesticide damage Grade 2 / Classification and statistics of the grade of pesticide damage Grade 3: number of plants in grade
In short: as §1

[3] = system: Arabidopsis thaliana T1 plants; experiment: Mesotrione tolerance of transgenic Arabidopsis thaliana T1 plants (spray, bleached leaf area grade, damage score); parameters: Scores: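 damage score 0-100 computed as Σ(N×S)/(T×M)×100 over grades 0-3 with higher meaning more damage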; conditions: for Grade 0 (classification and statistics of the grade of pesticide damage; number of plants) / Grade 1 (classification and statistics of the grade of pesticide damage; number of plants) / Grade 2 (classification and statistics of the grade of pesticide damage; number of plants) / Grade 3 (classification and statistics of the grade of pesticide damage; number of plants): 16 plants; for Classification and statistics of the grade of pesticide damage Grade 0 / Classification and statistics of the grade of pesticide damage Grade 1 / Classification and statistics of the grade of pesticide damage Grade 2 / Classification and statistics of the grade of pesticide damage Grade 3: number of plants in grade
In short: as §1

[4] = topramezone 25 g ai/ha (1×), 7 DAT, Table 4
[5] = topramezone 100 g ai/ha (4×), 7 DAT, Table 4
[6] = pesticide damage score 0-100, topramezone 25 g ai/ha (1×), 7 DAT, Table 4
[7] = pesticide damage score 0-100, topramezone 100 g ai/ha (4×), 7 DAT, Table 4
[8] = isoxaflutole 35 g ai/ha (0.5x field concentration), spray, Arabidopsis thaliana T1 plants
[9] = isoxaflutole 70 g ai/ha (1x field concentration), spray, Arabidopsis thaliana T1 plants
[10] = mesotrione 52.5 g ai/ha, Arabidopsis thaliana T1 plants
[11] = mesotrione 105 g ai/ha, Arabidopsis thaliana T1 plants
[12] = Table 13, topramezone 25 g ai/ha (1×)
[13] = Table 13, topramezone 100 g ai/ha (4×)

B1: AtHPPDm-F372A-F383W-02: nucleotide sequence encoding Arabidopsis thaliana HPPD with F372A+F383W; vector DBN11733 (nucleic acid)
DNA: ATGGGACATCAGAATGCTGCTGTATCAGAAAATCAAAATCATGATGATGGAGCCGCCTCCTCACCAGGGTTTAAGTTGGTTGGGTTCTCCAAGTTTGTACGGAAGAACCCAAAATCCGACAAGTTCAAGGTTAAACGCTTCCACCACATTGAATTCTGGTGCGGCGACGCCACCAATGTTGCTCGGCGTTTTTCATGGGGTTTAGGCATGAGATTCTCAGCAAAGAGTGACCTGAGCACCGGCAACATGGTTCATGCTAGCTATCTCTTAACATCTGGAGATTTGAGGTTTCTTTTCACGGCGCCGTACTCACCATCACTCTCCGCCGGCGAGATCAAACCCACCACGACTGCAAGCATACCTTCATTTGATCATGGTAGTTGCAGATCCTTCTTCTCGTCGCACGGCCTAGGGGTGCGCGCGGTCGCCATCGAAGTTGAAGATGCAGAATCAGCGTTTAGTATCAGCGTGGCAAATGGAGCTATTCCTTCCTCCCCTCCAATTGTCCTCAATGAGGCTGTAACTATTGCCGAGGTGAAGTTGTATGGAGATGTTGTGCTGAGATATGTTTCTTACAAGGCAGAGGACACTGAGAAATCTGAATTTTTGCCTGGTTTTGAAAGGGTCGAGGATGCTTCAAGTTTTCCTCTTGATTACGGCATACGACGGTTGGATCACGCGGTTGGAAATGTACCAGAACTTGGGCCGGCGCTCACTTATGTGGCTGGTTTCACTGGATTCCATCAATTTGCTGAGTTCACAGCTGATGATGTTGGGACTGCTGAAAGTGGGTTGAACTCTGCAGTCCTCGCCTCTAATGATGAAATGGTGCTCCTCCCGATCAACGAGCCTGTGCATGGCACCAAAAGGAAATCACAAATACAGACATATCTTGAGCACAATGAAGGTGCAGGGCTTCAACATCTTGCACTGATGTCTGAAGACATTTTCCGTACGCTGAGAGAGATGAGGAAGAGAAGTAGTATTGGTGGATTTGACTTCATGCCTTCTCCCCCACCAACTTACTACCAGAACTTGAAGAAGAGGGTTGGTGATGTGCTATCTGATGACCAGATCAAGGAGTGTGAAGAATTGGGCATTCTTGTTGATCGGGACGACCAAGGAACATTACTGCAGATAGCCACAAAACCACTTGGTGACCGCCCCACTATTTGGATTGAGATCATACAAAGAGTCGGCTGCATGATGAAGGATGAGGAAGGAAAAGCATATCAATCTGGTGGTTGTGGCGGCTTTGGGAAAGGAAACTTCTCTGAGCTGTTCAAATCCATCGAGGAGTATGAGAAGACCTTGGAGGCCAAGCAGCTCGTGGGTTGA
modifications: AtHPPDm-F372A-F383W-02 Nucleotide Sequence
notes: vector DBN11733
[1]; [4]
  Classification and statistics of the grade of pesticide damage: Grade 0: 9
  Classification and statistics of the grade of pesticide damage: Grade 1: 7
  Classification and statistics of the grade of pesticide damage: Grade 2: 0
  Classification and statistics of the grade of pesticide damage: Grade 3: 0
  Resistance evaluation: highly
[1]; [5]
  Classification and statistics of the grade of pesticide damage: Grade 0: 6
  Classification and statistics of the grade of pesticide damage: Grade 1: 7
  Classification and statistics of the grade of pesticide damage: Grade 2: 1
  Classification and statistics of the grade of pesticide damage: Grade 3: 2
  Resistance evaluation: moderately
[1]; [6]
  Scores: 15
[1]; [7]
  Scores: 31
[2]; [8]
  Resistance evaluation: Highly
  Scores (pesticide damage): 15
  Classification and statistics of the grade of pesticide damage: Grade 0 (number of plants): 10
  Classification and statistics of the grade of pesticide damage: Grade 1 (number of plants): 5
  Classification and statistics of the grade of pesticide damage: Grade 2 (number of plants): 1
  Classification and statistics of the grade of pesticide damage: Grade 3 (number of plants): 0
[2]; [9]
  Resistance evaluation: Moderately
  Scores (pesticide damage): 29
  Classification and statistics of the grade of pesticide damage: Grade 0 (number of plants): 5
  Classification and statistics of the grade of pesticide damage: Grade 1 (number of plants): 9
  Classification and statistics of the grade of pesticide damage: Grade 2 (number of plants): 1
  Classification and statistics of the grade of pesticide damage: Grade 3 (number of plants): 1
[3]; [10]
  Resistance evaluation: Moderately
  Scores: 21
  Grade 0 (classification and statistics of the grade of pesticide damage; number of plants): 8
  Grade 1 (classification and statistics of the grade of pesticide damage; number of plants): 6
  Grade 2 (classification and statistics of the grade of pesticide damage; number of plants): 2
  Grade 3 (classification and statistics of the grade of pesticide damage; number of plants): 0
[3]; [11]
  Resistance evaluation: Poorly resistant
  Scores: 44
  Grade 0 (classification and statistics of the grade of pesticide damage; number of plants): 2
  Grade 1 (classification and statistics of the grade of pesticide damage; number of plants): 8
  Grade 2 (classification and statistics of the grade of pesticide damage; number of plants): 5
  Grade 3 (classification and statistics of the grade of pesticide damage; number of plants): 1

B2: AtHPPDm-F372A-02: nucleotide sequence encoding Arabidopsis thaliana HPPD with F372A; vector DBN11731 (nucleic acid)
DNA: B1 DNA with G1175T, G1176T
modifications: AtHPPDm-F372A-02 Nucleotide Sequence
notes: vector DBN11731
[1]; [12]
  Resistance evaluation: Poorly
  Classification and statistics of the grade of pesticide damage Grade 0: 4
  Classification and statistics of the grade of pesticide damage Grade 1: 4
  Classification and statistics of the grade of pesticide damage Grade 2: 8
  Classification and statistics of the grade of pesticide damage Grade 3: 0
[1]; Table 13, topramezone 25 g ai/ha (1×), pesticide damage score
  Scores: 42
[1]; [13]
  Resistance evaluation: Non-resistant
  Classification and statistics of the grade of pesticide damage Grade 0: 0
  Classification and statistics of the grade of pesticide damage Grade 1: 0
  Classification and statistics of the grade of pesticide damage Grade 2: 4
  Classification and statistics of the grade of pesticide damage Grade 3: 12
[1]; Table 13, topramezone 100 g ai/ha (4×), pesticide damage score
  Scores: 92
[1]; [4]
  Classification and statistics of the grade of pesticide damage: Grade 0: 4
  Classification and statistics of the grade of pesticide damage: Grade 1: 4
  Classification and statistics of the grade of pesticide damage: Grade 2: 8
  Classification and statistics of the grade of pesticide damage: Grade 3: 0
  Resistance evaluation: poorly
[1]; [5]
  Classification and statistics of the grade of pesticide damage: Grade 0: 0
  Classification and statistics of the grade of pesticide damage: Grade 1: 0
  Classification and statistics of the grade of pesticide damage: Grade 2: 4
  Classification and statistics of the grade of pesticide damage: Grade 3: 12
  Resistance evaluation: non-resistant (non-resistant plants (scores 68-100))
[1]; [6]
  Scores: 42
[1]; [7]
  Scores: 92
[2]; isoxaflutole 35 g ai/ha
  Resistance evaluation: Poorly
  Scores: 52
  Classification and statistics of the grade of pesticide damage Grade 0: 0
  Classification and statistics of the grade of pesticide damage Grade 1: 9
  Classification and statistics of the grade of pesticide damage Grade 2: 5
  Classification and statistics of the grade of pesticide damage Grade 3: 2
[2]; [8]
  Resistance evaluation: Poorly
  Scores (pesticide damage): 52
  Classification and statistics of the grade of pesticide damage: Grade 0 (number of plants): 0
  Classification and statistics of the grade of pesticide damage: Grade 1 (number of plants): 9
  Classification and statistics of the grade of pesticide damage: Grade 2 (number of plants): 5
  Classification and statistics of the grade of pesticide damage: Grade 3 (number of plants): 2
[2]; isoxaflutole 70 g ai/ha
  Resistance evaluation: Non-resistant
  Scores: 96
  Classification and statistics of the grade of pesticide damage Grade 0: 0
  Classification and statistics of the grade of pesticide damage Grade 1: 0
  Classification and statistics of the grade of pesticide damage Grade 2: 2
  Classification and statistics of the grade of pesticide damage Grade 3: 14
[2]; [9]
  Resistance evaluation: Non-resistant
  Scores (pesticide damage): 96
  Classification and statistics of the grade of pesticide damage: Grade 0 (number of plants): 0
  Classification and statistics of the grade of pesticide damage: Grade 1 (number of plants): 0
  Classification and statistics of the grade of pesticide damage: Grade 2 (number of plants): 2
  Classification and statistics of the grade of pesticide damage: Grade 3 (number of plants): 14
[3]; mesotrione 52.5 g ai/ha
  Resistance evaluation: Poorly resistant
  Scores: 63
  Classification and statistics of the grade of pesticide damage Grade 0: 0
  Classification and statistics of the grade of pesticide damage Grade 1: 5
  Classification and statistics of the grade of pesticide damage Grade 2: 8
  Classification and statistics of the grade of pesticide damage Grade 3: 3
[3]; [10]
  Resistance evaluation: Poorly resistant
  Scores: 63
  Grade 0 (classification and statistics of the grade of pesticide damage; number of plants): 0
  Grade 1 (classification and statistics of the grade of pesticide damage; number of plants): 5
  Grade 2 (classification and statistics of the grade of pesticide damage; number of plants): 8
  Grade 3 (classification and statistics of the grade of pesticide damage; number of plants): 3
[3]; mesotrione 105 g ai/ha
  Resistance evaluation: Non-resistant
  Scores: 100
  Classification and statistics of the grade of pesticide damage Grade 0: 0
  Classification and statistics of the grade of pesticide damage Grade 1: 0
  Classification and statistics of the grade of pesticide damage Grade 2: 0
  Classification and statistics of the grade of pesticide damage Grade 3: 16
[3]; [11]
  Resistance evaluation: Non-resistant
  Scores: 100
  Grade 0 (classification and statistics of the grade of pesticide damage; number of plants): 0
  Grade 1 (classification and statistics of the grade of pesticide damage; number of plants): 0
  Grade 2 (classification and statistics of the grade of pesticide damage; number of plants): 0
  Grade 3 (classification and statistics of the grade of pesticide damage; number of plants): 16
